Test results taken from US9751932B2, “Anti-big-endothelin-1 (big-ET-1) antibodies and uses thereof” (Regeneron Pharmaceuticals, Inc., priority 2012, dated 2017).
“Also recorded” adds a separate entry of the source.

Assays:
[1] = target: T1, human big-ET-1 (SEQ ID NO:434) (Homo sapiens, UniProt P05305); experiment: MALDI-TOF detection of C-term peptide product from cleavage of big-ET-1 by mouse ECE-1; type: biochemical; design: purchased R&D Systems (mouse ECE-1 only)
T1 sequence (P05305 53-90 limits assumed): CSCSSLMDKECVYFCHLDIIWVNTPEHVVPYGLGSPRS
From the text: Matrix Assisted Laser Desorption Ionization Time of Flight (MALDI-TOF) mass spectrometry was used to determine if selected anti-big-ET-1 antibodies could block the conversion of human big-ET-1 (SEQ ID NO:434) or mouse big-ET-1 (SEQ ID NO:437) into its respective peptides in the presence of mouse endothelin converting enzyme 1 (ECE-1). Human big-ET-1 is specifically cleaved by mECE-1 at Trp-21/Val-22 forming both biologically active small-ET-1 (SEQ ID NO:435; MH^+ 2474) and a non-active C-term product (amino acids 22-38 of SEQ ID NO:434; MH^+ 1809). Mouse big-ET-1 is cleaved at Trp-21/VaI-22 into small-ET-1 (SEQ ID NO:435; MH^+ 2474) and its non-active C-term product (amino acids 22-39 of SEQ ID NO:437; MH^+ 1875). The appearance or absence of these masses, in the presence of antibody, can be monitored by MALDI-TOF. In the example below, the presence or absence of the C-term products served as an indicator for big-ET-1 cleavage since these peptides ionize more efficiently than small-ET-1 (SEQ ID NO:435; MH^+ 2474), thereby yielding a more sensitive readout.
Briefly, human or mouse big-ET-1 (0.5 μM) was mixed with antibody (2.5 μM), in phosphate buffered saline (PBS), at a 1:5 molar ratio (big-ET-1:mAb). After a 1-hr incubation (25° C.), mouse ECE-1 (R&D Systems) was added at 40 nM and the solution was placed at 37° C. Aliquots for mass spectrometry analysis were taken at 0, 15, 30 and 60 minutes. Each aliquot was desalted via C18 Ziptip (Millipore) and analyzed in reflextron-positive mode using a Bruker Ultraflextreme MALDI-TOF instrument (Bruker Daltonics).

[2] = target: T2, mouse big-ET-1 (SEQ ID NO:437) (Mus musculus, UniProt P22387); experiment: Surface plasmon resonance (Biacore) binding, mAb capture format, 37° C.
T2 sequence (P22387 53-91 limits assumed): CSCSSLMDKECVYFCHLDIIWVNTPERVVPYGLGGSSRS
Method: (§1) Measurements were conducted on a T200 Biacore instrument (Biacore Life Sciences division of GE Healthcare, Piscataway, N.J.). […] Different concentrations of small-ET-1 (SEQ ID NO:435), human big-ET-1 (SEQ ID NO:434) or mouse big-ET-1 (SEQ ID NO:437) were injected over the anti-big-ET-1 captured surfaces at a flow rate of 100 μl/min. Peptide binding was monitored for 3 min while dissociation of mAb-bound peptide was monitored for 4 min in HBST running buffer (0.01 M HEPES pH 7.4, 0.15 M NaCl, 3 mM EDTA, 0.005% v/v Surfactant P20). Kinetic association (ka) and dissociation (kd) rate constants were determined by processing and fitting the data to a 1:1 binding model using Scrubber 2.0 curve fitting software.

[3] = target: T1, human big-ET-1 (SEQ ID NO:434); experiment: as above; conditions: for ka / kd: analyte human big-ET-1, mAb capture
Method: as §1

[4] = system: C57BL/6 mice challenged with human big-ET-1 peptide; experiment: Mean arterial pressure changes after human big-ET-1 challenge in catheterized mice; type: in vivo, mouse
Method: The purpose of this Example was to evaluate the ability of an exemplary anti-big-ET-1 antibody (H2M6490N) to block […] increases in arterial pressure. Mice that had been previously infused with either blocking anti-big-ET-1 antibody or isotype control were challenged with big-ET-1 peptide. Changes in arterial pressure stemming from either big-ET-1 endogenous conversion to small-ET-1, or having its conversion blocked by circulating anti-big-ET-1 antibody, were measured. To facilitate real time measurements of arterial pressure during these experiments, mice were catheterized using standard protocols.
Briefly, naïve Taconic C57BL/6 mice (8-10 weeks of age) were anesthetized with isoflurane and the skin overlying the carotid artery and jugular vein was cut. Both the right jugular vein and left carotid artery were isolated, taking care not to damage the Vagus nerve or other blood vessels. Using standard techniques, the jugular vein was retracted and a 32-gauge needle (bent at a 90° angle) was used to puncture the vein for insertion of a saline-filled jugular vein catheter. The left carotid artery was then isolated and a Millar Micro-Tip® catheter was introduced using standard protocols. During all procedures a temperature probe was used to monitor animal body temperature, which was kept around 36.5° C. using a Gaymar heated water circulating pad. The above procedures allowed real-time pressure measurements (systolic pressure, diastolic pressure, mean arterial pressure, and body temperature) to be recorded during all big ET-1 challenge experiments.
In the first study, 150 μg (˜2 mg/kg; 1×10^−9 Moles) of H2M6490N or isotype control mAb was injected i.v. using the jugular vein port followed by a bolus of saline to flush the catheter. This caused a slight and transient drop in pressure that returned to baseline and established the T=0 for the experiment.
In a second experiment, the same experimental protocol was utilized except that H2M6490N (˜2 mg/kg; 1×10^−9 Moles) was injected subcutaneously (s.c.) into the mice 24 hrs before challenge with human big-ET-1 peptide.

[5] = target: T3, mouse big-ET-1 (cleavage by mouse ECE-1) (Mus musculus, UniProt P22387); experiment: NFAT luciferase reporter assay (293/ETaR/NFAT-Luc cells) for blocking of ECE-1-mediated cleavage; type: cell-based; conditions: read-out: Blocking IC50 20 nM mBig-ET-1 + 5 nM mECE1; human Fc mAbs (Table 5)
T3 sequence (P22387 53-91): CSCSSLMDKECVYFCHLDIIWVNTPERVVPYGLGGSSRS
Method: (§2) Briefly, HEK293 cell lines were generated to stably express full-length human endothelin receptor type A (ETaR) along with a luciferase reporter element [NFAT (4×)-luciferase]. A single clone was isolated and maintained in 10% FBS, DMEM, NEAA, Pen/Strep, and 500 μg/ml G418 and 100 μg/ml hygromycin B.
(§3) Both human and mouse big-ET-1 blocking experiments were allowed to incubate (37° C.; 5% CO2) overnight. The next morning these solutions were added to the 293/ETaR/NFAT-Luc cells (20,000 cells/well) and luciferase activity was detected after 5.5 hrs (37° C.; 5% CO2) using a Victor X plate reader (Perkin Elmer). The amount of luciferase activity observed under these conditions is a proportional representation of the amount of small-ET-1 generated from cleavage of either mouse or human big-ET-1.

[6] = target: T4, human big-ET-1 (cleavage by human ECE-1) (Homo sapiens, UniProt P05305); experiment: as above; type: cell-based; conditions: read-out: Blocking IC50 10 nM hBig-ET-1 + 3 nM hECE1; human Fc mAbs (Table 5)
T4 sequence (P05305 53-90 limits assumed): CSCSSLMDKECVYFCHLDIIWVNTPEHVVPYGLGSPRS
Method: as §2, §3

B1: H2M6490N: anti-big-ET-1 antibody, mouse IgG2 Fc; HCVR/LCVR SEQ ID NO: 18/26 (antibody, V domains shown)
VH: EVQLLESGGGLVQPGGSLRLSCAASGFTFSSYAMTWVRQAPGKGLECISAISGSGYSTYYADSMKGRFSISRDNSKNTLYLQMNRLRAEDTAVYYCTKGGRILEWLLPFDFWGQGTLVTVSS
VL: DVVMTQSPLSLPVTLGQPASISCRSSQSLVYSDGNTYLIWFQQRPGQSPRRLIYKVSNRDSGVPDRFSGSGSGTDFTLIISRVEAEDVGLYYCMQGTHWPPTFGGGTKVEIK
modifications: mouse IgG2 Fc
cleavage of human big-ET-1 by mouse ECE-1 (in words) [1]: no C-term product was detected | Detection of C-term Peptide Product, 0 min ([1]; Human big-ET-1, mouse ECE-1, 0 min): − | Detection of C-term Peptide Product, 15 min ([1]; Human big-ET-1, mouse ECE-1, 15 min): − | Detection of C-term Peptide Product, 30 min ([1]; Human big-ET-1, mouse ECE-1, 30 min): − | Detection of C-term Peptide Product, 60 min ([1]; Human big-ET-1, mouse ECE-1, 60 min): − | binding to mouse big-ET-1 (in words) [2]: did not show any binding | Kd ([2]; analyte mouse big-ET-1, mAb capture, KD=kd/ka): > 1000 nM | binding to human big-ET-1 (in words) [3]: high affinity binding | ka [3]: 209000 M/s | kd [3]: 0.00399 s⁻¹ | Mean Pressure Change ([4]; Study 1: antibody 150 μg i.v., time 0 min, cumulative big-ET-1 0.00E+00 Moles): 0 mmHg | Mean Pressure Change ([4]; Study 1: antibody i.v., time 30 min, cumulative big-ET-1 3.85E−11 Moles, mAb:big-ET-1 26.0): −0.6 ± 2.6 mmHg | Mean Pressure Change ([4]; Study 1: antibody i.v., time 45 min, cumulative big-ET-1 1.16E−10 Moles, mAb:big-ET-1 8.7): −1.0 ± 3.5 mmHg | Mean Pressure Change ([4]; Study 1: antibody i.v., time 60 min, cumulative big-ET-1 2.32E−10 Moles, mAb:big-ET-1 4.3): 4.0 ± 4.7 mmHg | Mean Pressure Change ([4]; Study 1: antibody i.v., time 75 min, cumulative big-ET-1 4.66E−10 Moles, mAb:big-ET-1 2.1): 18.2 ± 9.6 mmHg | Mean Pressure Change ([4]; Study 1: antibody i.v., time 90 min, cumulative big-ET-1 8.16E−10 Moles, mAb:big-ET-1 1.2): 32.5 ± 20.8 mmHg | Mean Pressure Change ([4]; Study 1: antibody i.v., time 105 min, cumulative big-ET-1 1.28E−09 Moles, mAb:big-ET-1 0.8): 25.1 ± 8.3 mmHg | Mean Pressure Change ([4]; Study 1: antibody i.v., time 120 min, cumulative big-ET-1 1.87E−09 Moles, mAb:big-ET-1 0.5): −15.4 ± 8.2 mmHg | Mean Pressure Change ([4]; Study 2: antibody s.c. ~24 hr before challenge, time 0 min, cumulative big-ET-1 0.00E+00 Moles): 0 mmHg | Mean Pressure Change ([4]; Study 2: antibody s.c. ~24 hr before, time 30 min, cumulative big-ET-1 3.85E−11 Moles, ratio 26.0): 1.7 mmHg | Mean Pressure Change ([4]; Study 2: antibody s.c. ~24 hr before, time 45 min, cumulative big-ET-1 1.16E−10 Moles, ratio 8.7): 7.6 mmHg | Mean Pressure Change ([4]; Study 2: antibody s.c. ~24 hr before, time 60 min, cumulative big-ET-1 2.32E−10 Moles, ratio 4.3): 14.9 mmHg | Mean Pressure Change ([4]; Study 2: antibody s.c. ~24 hr before, time 75 min, cumulative big-ET-1 4.66E−10 Moles, ratio 2.1): 52.1 mmHg | Mean Pressure Change ([4]; Study 2: antibody s.c. ~24 hr before, time 90 min, cumulative big-ET-1 8.16E−10 Moles, ratio 1.2): 45.8 mmHg | Mean Pressure Change ([4]; Study 2: antibody s.c. ~24 hr before, time 105 min, cumulative big-ET-1 1.28E−09 Moles, ratio 0.8): 12.0 mmHg | arterial pressure response to human big-ET-1 challenge (in words) ([4]; ~2 mg/kg antibody, 30 min (i.v.) or 24 hr (s.c.) before challenge): maintained baseline mean arterial pressure until the amount of human big-ET-1 peptide approached the molar equivalent of antibody on board; also recorded: maintained normal arterial pressures longer than those mice that were treated with isotype control antibody; also recorded: effective in inhibiting endothelin-1-mediated elevation in arterial pressure in vivo

B2: H4H6492N2: anti-big-ET-1 antibody, human IgG4 Fc; HCVR/LCVR SEQ ID NO: 418/426 (antibody, V domains shown)
VH: EVQLVESGGGLVKPGGSLRVSCVASGFTFSNAWMTWVRQTPGKGLEWVGRIKSRTDGGTVDYVAPVKGRFTISRDDSKNTLYLQMNSLKAEDTAVYYCRADLDYWGQGTLVTVSS
VL: DVVMTQSPLSLPVSLGQPASISCRSSQSLVHSDGITYLNWFQQRPGQSPRRLIYKISNRDSGVPDRFSGSGSGTDFTLKFSRVEAEDVGVYFCMQGTHWPYTFGQGTKLEIK
modifications: human IgG4 Fc
ka [3]: 424000 M/s | kd [3]: 0.0297 s⁻¹ | IC50 [5]: > 100 nM

B3: H4H6490N2: anti-big-ET-1 antibody, human IgG4 Fc; HCVR/LCVR SEQ ID NO: 402/410 (antibody, V domains shown)
VH: EVQLLESGGGLVQPGGSLRLSCAASGFTFSSYAMTWVRQAPGKGLEWISAISGSGYSTYYADSMKGRFSISRDNSKNTLYLQMNRLRAEDTAVYYCTKGGRILEWLLPFDFWGQGTLVTVSS
VL: DVVMTQSPLSLPVTLGQPASISCRSSQSLVYSDGNTYLIWFQQRPGQSPRRLIYKVSNRDSGVPDRFSGSGSGTDFTLIISRVEAEDVGLYYCMQGTHWPPTFGGGTKVEIK
modifications: human IgG4 Fc
IC50 [5]: > 100 nM | IC50 [6]: > 100 nM
